Experimental data as given in patent publication EP4810052A2 (Gubra A/S, dated 2026).
Numbering of substitutions follows the chain as printed. Starred links: 1 amine or outer side, 2 acyl side, 3 side chain; linkers in the order of their positions; H or OH if unused. Non-standard residues stand in square brackets, D forms with d. Groups on a side chain read outwards from the residue. No end group written: not given here. *: point of attachment. C20 diacid = O=C(O)CCCCCCCCCCCCCCCCCCC(=O)*; γGlu = O=C(O)[C@H](CCC(=O)[*:2])N[*:1]; NMeI = CC[C@H](C)[C@H](NC)C(=O)O; Nle = CCCC[C@H](N)C(=O)O; lip = not defined here; AEEA = NCCOCCOCC(=O)O; Aib = CC(C)(N)C(=O)O

T1: human corticotropin-releasing hormone receptor 1 (human, UniProt P34998 24-415)
T1 sequence (looked up): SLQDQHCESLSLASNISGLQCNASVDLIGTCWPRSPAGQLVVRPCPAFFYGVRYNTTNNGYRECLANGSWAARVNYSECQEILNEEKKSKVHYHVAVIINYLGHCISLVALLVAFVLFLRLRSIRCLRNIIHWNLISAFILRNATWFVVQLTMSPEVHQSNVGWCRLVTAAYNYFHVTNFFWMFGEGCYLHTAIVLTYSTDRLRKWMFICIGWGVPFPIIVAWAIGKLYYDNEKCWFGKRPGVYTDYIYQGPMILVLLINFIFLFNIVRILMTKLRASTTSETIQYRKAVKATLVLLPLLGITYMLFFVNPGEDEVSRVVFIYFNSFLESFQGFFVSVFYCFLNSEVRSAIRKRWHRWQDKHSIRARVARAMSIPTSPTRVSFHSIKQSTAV

T2: mouse CRH receptor 1 (mouse, UniProt P35347 24-415)
T2 sequence (looked up): T1 sequence (looked up) with H6Q, I16V, V95I, M153V, G163A, I209V, H356R

T3: rat CRH receptor 1 (rat, UniProt P35353 24-415)
T3 sequence (looked up): T1 sequence (looked up) with H6R, S9N, A13T, I16V, M153V, G163A, I209V, Y229H, H356R

B1: SEQ ID NO: 6, [MeI]VLSLDVPIGLLQILLEQARARAAREQAT[K*]NAEILAEV(NH2) (peptide)
peptide: [NMeI]VLSLDVPIGLLQILLEQARARAAREQATKNAEILAEV-NH2
modifications: not fully specified (residue 30); printed as [MeI]VLSLDVPIGLLQILLEQARARAAREQAT[K*]NAEILAEV(NH_2); also: lipid and spacer on Lys30 not given here
B2: SEQ ID NO: 16, [MeI]VLSLDVPIGLLQILLEQARARAAREQA[K*]TN[Aib]EILAEV(NH2) (peptide)
peptide: [NMeI]VLSLDVPIGLLQILLEQARARAAREQAK(lip)TN[Aib]EILAEV-NH2
modifications: reading uncertain; also: printed as [MeI]VLSLDVPIGLLQILLEQARARAAREQA[K*]TN[Aib]EILAEV(NH2)
B3: SEQ ID NO: 215, [MeI]VLSLDVPIGLLQILLSQARARAAREQA[K*]TN[Aib]EI[Nle]AEV(NH2) (peptide)
peptide: [NMeI]VLSLDVPIGLLQILLSQARARAAREQAK([AEEA-AEEA-γGlu-γGlu-C20 diacid])TN[Aib]EI[Nle]AEV-NH2
modifications: not fully specified; printed as [MeI]VLSLDVPIGLLQILLSQARARAAREQA[K*]TN[Aib]EI[Nle]AEV(NH_2)
B4: SEQ ID NO: 238, PVLSLDVPIGLLQILLSQARARAAREQA[K*][Aib]NAEI[Nle]AEV(NH2) (peptide)
peptide: PVLSLDVPIGLLQILLSQARARAAREQAK[Aib]NAEI[Nle]AEV-NH2
modifications: not fully specified (residue 29); printed as PVLSLDVPIGLLQILLSQARARAAREQA[K*][Aib]NAEI[Nle]AEV(NH_2); also: lipid and spacer on Lys29 not given here

Biological target: T1, human corticotropin-releasing hormone …
Assay: cell-based or functional assay

| hCRHR1 EC50 (nM); HTRF cAMP assay, CHO-K1 cells stably expressing hCRHR1 [nM] | Binder |
| --- | --- |
| > 5000 | B1 |
| > 5000 | IVLSLDVPIGLLQILLEQARARAAREQAK(lip)TNAEILAEV-NH2 (not fully specified; reading uncertain) [SEQ ID NO: 3 (Lipidated UCN2 with X^36 = E; X^40 = E) (reference 1)] |

Biological target: T1, human corticotropin-releasing hormone …
Assay: cell-based or functional assay
Remark: another data set of the same source

| hCRHR1 EC50 (nM); HTRF cAMP assay, CHO-K1 cells stably expressing hCRHR1 [nM] | Binder |
| --- | --- |
| > 5000 | B2 |
| > 5000 | B1 |
| > 5000 | IVLSLDVPIGLLQILLEQARARAAREQAK(lip)TNAEILAEV-NH2 (not fully specified; reading uncertain) [SEQ ID NO: 3 (Lipidated UCN2 with X^36 = E; X^40 = E) (reference 1)] |

Biological target: T1, human corticotropin-releasing hormone …
Assay: cell-based or functional assay
Remark: another data set of the same source

| hCRHR1 EC50 (nM); HTRF cAMP assay, CHO-K1 cells stably expressing hCRHR1 [nM] | Binder |
| --- | --- |
| > 5000 | B3 |
| > 5000 | IVLSLDVPIGLLQILLEQARARAAREQAK(lip)TNAEILAEV-NH2 (not fully specified; reading uncertain) [SEQ ID NO: 3 (Lipidated UCN2 with X^36 = E; X^40 = E) (reference 1)] |
| > 5000 | B4 |

Biological target: T1, human corticotropin-releasing hormone …
Assay: cell-based or functional assay
Remark: another data set of the same source

| Stable EC50 (nM), hCRHR1; cAMP assay, stable CHO-K1 cells [nM] | Transient cell system EC50 (nM), hCRHR1; cAMP assay, transiently transfected CHO-K1 cells [nM] | Binder |
| --- | --- | --- |
| > 5000 | > 1000 | B2 |
| > 5000 | 826 | B3 |
| > 5000 | > 1000 | B1 |
| > 5000 | > 1000 | IVLSLDVPIGLLQILLEQARARAAREQAK(lip)TNAEILAEV-NH2 (not fully specified; reading uncertain) [SEQ ID NO: 3 (Lipidated UCN2 with X^36 = E; X^40 = E) (reference 1)] |
| > 5000 | > 5000 | B4 |

Biological target: T2, mouse CRH receptor 1
Assay: cell-based or functional assay

| Transient cell system EC50 (nM), mCRHR1; cAMP assay, transiently transfected CHO-K1 cells [nM] | Binder |
| --- | --- |
| 76 | B2 |
| 50 | B3 |
| 71 | B1 |
| 44 | IVLSLDVPIGLLQILLEQARARAAREQAK(lip)TNAEILAEV-NH2 (not fully specified; reading uncertain) [SEQ ID NO: 3 (Lipidated UCN2 with X^36 = E; X^40 = E) (reference 1)] |
| 323 | B4 |

Biological target: T3, rat CRH receptor 1
Assay: cell-based or functional assay

| Transient cell system EC50 (nM), rCRHR1; cAMP assay, transiently transfected CHO-K1 cells [nM] | Binder |
| --- | --- |
| 256 | B2 |
| 175 | B3 |
| 275 | B1 |
| 163 | IVLSLDVPIGLLQILLEQARARAAREQAK(lip)TNAEILAEV-NH2 (not fully specified; reading uncertain) [SEQ ID NO: 3 (Lipidated UCN2 with X^36 = E; X^40 = E) (reference 1)] |
| > 1000 | B4 |

Biological target: porcine CRH receptor 1 (pig)
Assay: cell-based or functional assay

| Transient cell system EC50 (nM), pCRHR1; cAMP assay, transiently transfected CHO-K1 cells [nM] | Binder |
| --- | --- |
| > 5000 | B2 |
| > 1000 | B3 |
| > 5000 | B1 |
| > 5000 | IVLSLDVPIGLLQILLEQARARAAREQAK(lip)TNAEILAEV-NH2 (not fully specified; reading uncertain) [SEQ ID NO: 3 (Lipidated UCN2 with X^36 = E; X^40 = E) (reference 1)] |
| > 5000 | B4 |
